{"source": "patent US20120003226A1", "biological_target": "IL-1 receptor (human) (UniProt P14778)", "sequence (P14778 18-569)": "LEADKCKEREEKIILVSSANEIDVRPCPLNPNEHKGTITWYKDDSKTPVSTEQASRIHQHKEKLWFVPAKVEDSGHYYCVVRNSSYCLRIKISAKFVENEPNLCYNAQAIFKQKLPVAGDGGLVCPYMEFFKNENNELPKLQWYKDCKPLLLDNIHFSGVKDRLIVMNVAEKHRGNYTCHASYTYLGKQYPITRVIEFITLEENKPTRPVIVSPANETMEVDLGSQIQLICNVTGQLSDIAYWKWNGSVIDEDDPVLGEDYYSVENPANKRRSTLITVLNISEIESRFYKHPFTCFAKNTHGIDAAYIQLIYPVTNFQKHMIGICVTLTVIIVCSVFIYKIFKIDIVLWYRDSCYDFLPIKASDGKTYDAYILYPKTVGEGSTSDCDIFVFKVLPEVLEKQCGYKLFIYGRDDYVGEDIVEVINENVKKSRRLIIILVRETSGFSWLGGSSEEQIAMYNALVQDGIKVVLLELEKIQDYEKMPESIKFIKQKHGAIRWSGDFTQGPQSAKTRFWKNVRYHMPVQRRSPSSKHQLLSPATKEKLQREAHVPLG", "experiment": "cell-based or functional assay", "data": [{"substance": "Kineret® (anakinra) (from UniProt P18510 26-177) (ligand)", "values": [{"measurement": "IC50, inhibition of IL-1β induced production of IL-8 in human whole blood (100 pM rhIL-1β)", "value": 53.4, "unit": "pM"}]}]}
